The values below come from patent publication US20240034774A1.

What all share (assay): cell-based or functional assay
In assay [1] the target is HIV-1 envelope glycoprotein gp120 of virus 7141 (HIV-1).
Assay [2] addresses HIV-1 envelope glycoprotein gp120 of virus 92US727 (HIV-1).
In assay [3] the target is HIV-1 envelope glycoprotein gp120 of virus VS001 (HIV-1).
Assay [4] concerns the target 152 patient-derived subtype B viruses obtained from pre-ART plasma.

B1: 3.1.15-1 (antibody, human IgG1, kappa, V domains shown)
VH: QVQLLQSGAAVTKPGASVRVSCEASGYNIRDYFIHWWRQAPGQGLQWVGWINPKTGQPNNPRQFQGRVSLTRHASWDFDTFSFYMDLKALRSDDTAVYFCARQRSDYWDFDVWGSGTQVTVSS
VL: DIQMTQSPSSLSARVGDTATITCQANGYLNWYQQRRGKAPKLLIYDGSKLERGVPARFSGRRWGQEYTLTINNLQPEDVATYFCQVYEFFGPGTRLDLKR
For the molecule B1, the neutralization IC50 in assay [1] is 9.1 µg/mL; in assay [2], greater than 33 µg/mL; in assay [3], 0.49 µg/mL.

B2: 2.2.7-1 (antibody, human IgG1, kappa, V domains shown)
VH: QVHLSQSGAAVTKPGASVRVSCEASGYKIRDHFIHWWRQAPGQGLQWVGWINPKTGQPNNPRQFQGRVSLTRHASWDFDTFSFYMDLKAVRSDDTAIYFCARQRSDYWDFDVWGSGTQVTVSS
VL: DIQMTQSPSSLSARVGDRATITCQANGYLNWYQQRRGKAPKLLIYDGSKLERGVPARFSGSRWGQEYTLTISSLQPEDVATYFCQVYEFFGPGTRLDLKR
For the molecule B2, the results for the neutralization IC50 in assay [1], in assay [2] and in assay [3] were 1.58 µg/mL, greater than 50 µg/mL and 0.27 µg/mL, respectively.

B3: 3.1.17-1 (antibody, human IgG1, kappa, V domains shown)
VH: QVQLLQSGAAVTKPGASVRVSCEASGYNIRDYFIHWWRQAPGQGLQWVGWINPKTGQPNNPRQFQGRVSLTRHASWDFDTFSFYMDLKALRSDDTAVYFCARQRSDYWDFDVWGSGTQVTVSS
VL: DIQMTQSPSSLSARVGDTATITCQANGYLNWYQQRRGKAPKLLIYDGSKLERGVPARFSGRRWGQEYHLTINNLQPEDVATYFCQVYEFFGPGTRLDLKR
As to B3, the values for the neutralization IC50 in assay [1], in assay [2] and in assay [3] were 25.5 µg/mL, greater than 50 µg/mL and 2.21 µg/mL, respectively.

B4: 2.2.17-1 (antibody, human IgG1, kappa, V domains shown)
VH: QVHLSQSGAAVTKPGASVRVSCEASGYKIRDHFIHWWRQAPGQGLQWVGWINPKTGQPNNPRQFQGRVSLTRHASWDFDTFSFYMDLKAVRSDDTAIYFCARQRSDYWDFDVWGSGTQVTVSS
VL: DIQMTQSPSSLSARVGDTATITCQANGYLNWYQQRRGKAPKLLIYDGSKLERGVPARFSGRRWGQEYHLTINNLQPEDVATYFCQVYEFFGPGTRLDLKR
Consider B4, for which the neutralization IC50 was 6.28 µg/mL in assay [1], greater than 50 µg/mL in assay [2] and 4.38 µg/mL in assay [3].

B5: Antibody 1.52.90-1 (antibody, V domains shown)
VH: QVQLLQSGAAVTKPGASVRVSCEASGYNIRDYFIHWWRQAPGQGLQWVGWINPKTGQPNNPRQFQGRVSLTRHASFDFDTFSFYMDLKALRSDDTAVYFCARQRSDYWDFDVWGSGTQVTVSS
VL: DIQMTQSPSSLSASVGDRATITCQANGYLNWYQQRRGKAPKLLIYDGSKLERGVPSRFSGSRWGQEYNLTISSLQPEDIATYFCQVYEFFGPGTRLDLKR
On to B5, for which, in assay [4], the Breadth (% viruses neutralized with an IC95 ≤ 50 µg/mL) came out at 78%, the Geomean IC95 is 4.56 µg/mL and the Median IC95 was 4.42 µg/mL.

B6: 2.3.15-1 (antibody, human IgG1, kappa, V domains shown)
VH: QVHLSQSGAAVTKPGASVRVSCEASGYNIRDYFIHWWRQAPGQGLQWVGWINPKTGQPNNPRQFQGRVSLTRHASWDFDTFSFYMDLKAVRSDDTAIYFCARQRSDYWDFDVWGSGTQVTVSS
VL: DIQMTQSPSSLSARVGDTATITCQANGYLNWYQQRRGKAPKLLIYDGSKLERGVPARFSGRRWGQEYTLTINNLQPEDVATYFCQVYEFFGPGTRLDLKR
Turning to B6, the figures for the neutralization IC50 in assay [1], in assay [2] and in assay [3] were 5.93 µg/mL, greater than 50 µg/mL and 0.85 µg/mL, respectively.

B7: 2.3.18-1 (antibody, human IgG1, kappa, V domains shown)
VH: QVHLSQSGAAVTKPGASVRVSCEASGYNIRDYFIHWWRQAPGQGLQWVGWINPKTGQPNNPRQFQGRVSLTRHASWDFDTFSFYMDLKAVRSDDTAIYFCARQRSDYWDFDVWGSGTQVTVSS
VL: DIQMTQSPSSLSARVGDRATITCQANGYLNWYQQRRGKAPKLLIYDGSKLERGVPARFSGSRWGQEYHLTISSLQPEDVATYFCQVYEFFGPGTRLDLKR
Turning to B7, the neutralization IC50 in assay [1] was greater than 23 µg/mL; in assay [2], greater than 23 µg/mL; in assay [3], 2.37 µg/mL.

B8: 1.1.119-1 (antibody, human IgG1, kappa, V domains shown)
VH: QVQLLQSGAAVTKPGASVRVSCEASGYNIRDYFIHWWRQAPGQGLQWVGWINPKTGQPNNPRQFQGRVSLTRHASWDFDTFSFYMDLKALRSDDTAVYFCARQRSDYWDFDVWGSGTQVTVSS
VL: DIQMTQSPSSLSASVGDRATITCQANGYLNWYQQRRGKAPKLLIYDGSKLERGVPSRFSGSRWGQEYTLTISSLQPEDIATYFCQVYEFFGPGTRLDLKR
For B8, the neutralization IC50 is 6.92 µg/mL in assay [1], greater than 50 µg/mL in assay [2] and 0.39 µg/mL in assay [3].

B9: 2.3.17-1 (antibody, human IgG1, kappa, V domains shown)
VH: QVHLSQSGAAVTKPGASVRVSCEASGYNIRDYFIHWWRQAPGQGLQWVGWINPKTGQPNNPRQFQGRVSLTRHASWDFDTFSFYMDLKAVRSDDTAIYFCARQRSDYWDFDVWGSGTQVTVSS
VL: DIQMTQSPSSLSARVGDTATITCQANGYLNWYQQRRGKAPKLLIYDGSKLERGVPARFSGRRWGQEYHLTINNLQPEDVATYFCQVYEFFGPGTRLDLKR
As for B9, the neutralization IC50 was 31.3 µg/mL in assay [1], greater than 50 µg/mL in assay [2] and 4.54 µg/mL in assay [3].

B10: 1.1.102-1 (antibody, human IgG1, kappa, V domains shown)
VH: QVQLLQSGAAVTKPGASVRVSCEASGYNIRDYFIHWWRQAPGQGLQWVGWINPKTGQPNNPRQFQGRVSLTRHASWDFDTFSFYMDLKALRSDDTAVYFCARQRSDYWDFDVWGSGTQVTVSS
VL: DIQMTQSPSSLSASVGDRATITCQANGYLNWYQQRRGKAPKLLIYDGSKLERGVPSRFSGSRWGQEYHLTISSLQPEDIATYFCQVYEFFGPGTRLDLKR
Consider B10, for which the neutralization IC50 in assay [1] was 22.7 µg/mL; in assay [2], greater than 50 µg/mL; in assay [3], 3 µg/mL.

B11: 2.3.7-1 (antibody, human IgG1, kappa, V domains shown)
VH: QVHLSQSGAAVTKPGASVRVSCEASGYNIRDYFIHWWRQAPGQGLQWVGWINPKTGQPNNPRQFQGRVSLTRHASWDFDTFSFYMDLKAVRSDDTAIYFCARQRSDYWDFDVWGSGTQVTVSS
VL: DIQMTQSPSSLSARVGDRATITCQANGYLNWYQQRRGKAPKLLIYDGSKLERGVPARFSGSRWGQEYTLTISSLQPEDVATYFCQVYEFFGPGTRLDLKR
As for B11, the neutralization IC50 was 5.08 µg/mL in assay [1], greater than 50 µg/mL in assay [2] and 0.47 µg/mL in assay [3].

B12: 2.2.15-1 (antibody, human IgG1, kappa, V domains shown)
VH: QVHLSQSGAAVTKPGASVRVSCEASGYKIRDHFIHWWRQAPGQGLQWVGWINPKTGQPNNPRQFQGRVSLTRHASWDFDTFSFYMDLKAVRSDDTAIYFCARQRSDYWDFDVWGSGTQVTVSS
VL: DIQMTQSPSSLSARVGDTATITCQANGYLNWYQQRRGKAPKLLIYDGSKLERGVPARFSGRRWGQEYTLTINNLQPEDVATYFCQVYEFFGPGTRLDLKR
On to B12, for which the neutralization IC50 in assay [1] is 1.99 µg/mL; in assay [2], greater than 50 µg/mL; in assay [3], 0.37 µg/mL.

B13: 2.2.18-1 (antibody, human IgG1, kappa, V domains shown)
VH: QVHLSQSGAAVTKPGASVRVSCEASGYKIRDHFIHWWRQAPGQGLQWVGWINPKTGQPNNPRQFQGRVSLTRHASWDFDTFSFYMDLKAVRSDDTAIYFCARQRSDYWDFDVWGSGTQVTVSS
VL: DIQMTQSPSSLSARVGDRATITCQANGYLNWYQQRRGKAPKLLIYDGSKLERGVPARFSGSRWGQEYHLTISSLQPEDVATYFCQVYEFFGPGTRLDLKR
Consider B13, for which the figures for the neutralization IC50 in assay [1], in assay [2] and in assay [3] were 5.04 µg/mL, greater than 34 µg/mL and 2.51 µg/mL, respectively.

B14: 3.1.18-1 (antibody, human IgG1, kappa, V domains shown)
VH: QVQLLQSGAAVTKPGASVRVSCEASGYNIRDYFIHWWRQAPGQGLQWVGWINPKTGQPNNPRQFQGRVSLTRHASWDFDTFSFYMDLKALRSDDTAVYFCARQRSDYWDFDVWGSGTQVTVSS
VL: DIQMTQSPSSLSARVGDRATITCQANGYLNWYQQRRGKAPKLLIYDGSKLERGVPARFSGSRWGQEYHLTISSLQPEDVATYFCQVYEFFGPGTRLDLKR
Take B14: the neutralization IC50 is greater than 9.8 µg/mL in assay [1], greater than 9.8 µg/mL in assay [2] and 3.52 µg/mL in assay [3].

B15: 3.1.7-1 (antibody, human IgG1, kappa, V domains shown)
VH: QVQLLQSGAAVTKPGASVRVSCEASGYNIRDYFIHWWRQAPGQGLQWVGWINPKTGQPNNPRQFQGRVSLTRHASWDFDTFSFYMDLKALRSDDTAVYFCARQRSDYWDFDVWGSGTQVTVSS
VL: DIQMTQSPSSLSARVGDRATITCQANGYLNWYQQRRGKAPKLLIYDGSKLERGVPARFSGSRWGQEYTLTISSLQPEDVATYFCQVYEFFGPGTRLDLKR
B15: the neutralization IC50 in assay [1] is 5.65 µg/mL; in assay [2], greater than 50 µg/mL; in assay [3] it was 0.3 µg/mL.

B16: 1.1.78-1 (antibody, human IgG1, kappa, V domains shown)
VH: QVQLLQSGAAVTKPGASVRVSCEASGYNIRDYFIHWWRQAPGQGLQWVGWINPKTGQPNNPRQFQGRVSLTRHASWDFDTFSFYMDLKALRSDDTAVYFCARQRSDYWDFDVWGSGTQVTVSS
VL: DIQMTQSPSSLSASVGDTATITCQANGYLNWYQQRRGKAPKLLIYDGSKLERGVPSRFSGRRWGQEYHLTINNLQPEDIATYFCQVYEFFGPGTRLDLKR
In the case of B16, the figures for the neutralization IC50 in assay [1], in assay [2] and in assay [3] were 29.5 µg/mL, greater than 50 µg/mL and 3.3 µg/mL, respectively.
